This is an account of results in publication doi:10.1101/2024.06.26.600780 (bioRxiv, 2024).

Sequences and labels used below:
B1: Nb207 (VHH)
VHH: QVQLVESGGGLVQAGGSLRLSCAASGRTFSTAAMGWFRQAPGKERDFVAGIYWTVGSTYYADSAKGRFTISRDNAKNTVYLQMDSLKPEDTAVYYCAARRRGFTLAPTRANEYDYWGQGTQVTVSS
B2: Nb395 (VHH)
VHH: QVQLVESGGGLVQTGDSLRLSCAASLRTFKSYAMGWFRQAPGKEREAVATISAEGDSTYYDDSVKGRFTISRDNAANTVYLQMNSLKPEDTAVYYCAASRFPYGLRLLQRRESDYWGQGTQVTVSS
B3: Nb394 (VHH)
VHH: QVQLVESGGGLVQAGGSLRLSCAASGRTFSVSNMGWFRQAPGKERVFVAAIGWTTGSTYYADSVKGRFTISRDNTKNTVYLQMNSLKPEDTAVYRCAARRRGYSRVPMTPDEYEYWGQGTQVTVSS

The target of this experiment is Green Fluorescent Protein (GFP), biotinylated (biotin (EZ-Link NHS-PEG4-Biotin)). The experiment is described as follows: BLI. On the technique in general: In BLI a coated tip is dipped into the sample, and binding shifts an interference pattern.
In the case of B1, the binding result is given as “binds”.
With B2, the binding result is given as “binds”.
For B3, the binding result is given as “binds”.
